Test results reported in patent US20140287507A1.

Molecular target: integrin β1 (receptor subunit on the seeded cells, blocked with anti-β1 monoclonal antibody) (hamster (baby hamster kidney cells))
Experiment: cell-based or functional assay

## TMV-RGD1 (Tobacco mosaic virus particle whose coat protein carries the insert GRGDSPG extended after T159) (from UniProt P69687 2-159)
  cell attachment on virus coated plate after blocking the cells with integrin specific monoclonal antibody (% drop in attachment): 25
